Results from the supplement of paper PMC7877785.
± gives the uncertainty stated by the source.

Assay: self-splicing fitness, log relative to wild type (ln ratio); higher = more splicing; Tetrahymena group I intron in knt gene, E. coli kanamycin selection, DiMSum; sequences stand for … in CUCUCU…GGAGGGAAAAGUUAUCAGGCAUGCACCUGGUAGCUAGUCUUUAAACCAAUAGAUUGCAUCGGUUUAAAAGGCAAGACCGUCAAAUUGCGGGAAAGGGGUCAACAGCCGUUCAGUACCAAGUCUCAGGGGAAACUUUGAGAUGGCCUUGCAAAGGGUAUGGUAAUAAGCUGACGGACAUGGUCCUAACCACGCAGCCAAGUCCUAAGUCAACAGAUCUUCUGUUGAUAUGGAUGCAGUUCACAGACUAAAUGUCGGUCGGGGAAGAUGUAUUCUUCUCAUAAGAUAUAGUCGGACCUCUCCUUAAUGGGAGCUAGCGGAUGAAGUGAUGCAACACUGGAGCCGCUGGGAACUAAUUUGUAUGCGAAAGUAUAUUGAUUAGUUUUGGAGUACUCGUGGUCG
Procedure, shortened: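 Library with all eight P1ex-region intron nucleotides randomised, intron inside the knt kanamycin-resistance gene on pET-22b(+), in E. coli BL21(DE3). Cells grew overnight at 37°C or 30°C on LB agar with or without 25 μg/mL kanamycin (plus 100 μg/mL carbenicillin, 50 μM IPTG, 0.2% rhamnose), in six replicate transformations. Pooled colonies were amplicon-sequenced on Illumina HiSeq 2500. DiMSum fitness is the error-weighted combination of wild-type-normalised replicate fold changes, kanamycin versus none.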

Sequence | self-splicing fitness (ln) (30 °C) | self-splicing fitness (ln) (37 °C)
GACGAGCAAUAUUACGACUG | -2.47 ± 0.21 | -0.443 ± 0.25
GAUGAGCAAUAUUACGCUCU | -3.24 ± 0.36 | -2.02 ± 0.44
UCACAGCAAUAUUACGAAGC | -3.07 ± 0.21 | 
CAUUAGCAAUAUUACGAUUC | -2.1 ± 0.18 | -0.901 ± 0.17
ACAAAGCAAUAUUACGACAU | -0.488 ± 0.011 | 0.0402 ± 0.032
UCACAGCAAUAUUACGAGCU | -3.32 ± 0.18 | -2.37 ± 0.26
AAUGAGCAAUAUUACGGGGC | -2.82 ± 0.2 | -1.93 ± 0.24
CAAAAGCAAUAUUACGUGGA | -3.4 ± 0.14 | -2 ± 0.096
GCGCAGCAAUAUUACGAGAU | -1.85 ± 0.089 | -0.7 ± 0.11
UUGUAGCAAUAUUACGUCGC | -3.54 ± 0.46 | 
AAGUAGCAAUAUUACGGCCG | -1.34 ± 0.12 | -0.293 ± 0.18
GAGAAGCAAUAUUACGGACU | -0.326 ± 0.091 | -0.101 ± 0.11
UUGCAGCAAUAUUACGCGGC |  | -2.28 ± 0.46
CAUUAGCAAUAUUACGAGUU | -3.7 ± 0.17 | -2.67 ± 0.18
UGGUAGCAAUAUUACGAUGC | -3.09 ± 0.5 | -1.82 ± 0.43
UAUGAGCAAUAUUACGUGUA | -2.13 ± 0.16 | -1.32 ± 0.12
CGCUAGCAAUAUUACGGGUC | -3.08 ± 0.21 | -2.9 ± 0.34
CGUGAGCAAUAUUACGAAUU |  | -0.866 ± 0.17
AGCCAGCAAUAUUACGGUCG | -0.387 ± 0.078 | -0.328 ± 0.092
UAAAAGCAAUAUUACGGAGC | -4.1 ± 0.25 | -3.36 ± 0.28
GUCGAGCAAUAUUACGACGU | -0.827 ± 0.19 | -0.341 ± 0.16

Sequence | self-splicing fitness (ln) (30 °C) | self-splicing fitness (ln) (37 °C)
AAUCAGCAAUAUUACGAGGU | -2.3 ± 0.12 | -1.36 ± 0.15
UGCUAGCAAUAUUACGGUGU | -3.16 ± 0.14 | -2.38 ± 0.19
CACAAGCAAUAUUACGCCAA | -2.76 ± 0.27 | -2.01 ± 0.21
ACAUAGCAAUAUUACGGGCC |  | -1.59 ± 0.2
CUGAAGCAAUAUUACGUACU | -3.61 ± 0.31 | -2.92 ± 0.34
UAUGAGCAAUAUUACGCAAG | -2.66 ± 0.24 | -1.36 ± 0.23
CCUGAGCAAUAUUACGCUGA | -2.59 ± 0.31 | -2.56 ± 0.35
GAGAAGCAAUAUUACGUAAA | -2.16 ± 0.14 | -0.647 ± 0.17
UAGUAGCAAUAUUACGUCUU | -0.75 ± 0.097 | -0.388 ± 0.11
GUUUAGCAAUAUUACGUGAU | -0.892 ± 0.17 | -0.419 ± 0.12
GUUUAGCAAUAUUACGGUAC | -1.22 ± 0.12 | -2.01 ± 0.15
AAUUAGCAAUAUUACGAUAU | -0.45 ± 0.093 | 0.012 ± 0.12
AUAGAGCAAUAUUACGUCUU | 0.446 ± 0.074 | 0.419 ± 0.087
GUCAAGCAAUAUUACGACAG | -4.39 ± 0.33 | -2.93 ± 0.33
AUUAAGCAAUAUUACGUGAU | -1.74 ± 0.089 | -1.34 ± 0.12
AUGGAGCAAUAUUACGAAUG | -3.6 ± 0.34 | -2.35 ± 0.18
AUCAAGCAAUAUUACGUCGU | -1.5 ± 0.052 | -0.574 ± 0.071
GCUGAGCAAUAUUACGACAC | -1.67 ± 0.14 | -1.1 ± 0.18
CGGUAGCAAUAUUACGCUGG | -0.433 ± 0.13 | -0.681 ± 0.15
ACAAAGCAAUAUUACGUGGC | -3.72 ± 0.21 | -2.91 ± 0.18
CUGCAGCAAUAUUACGGCAC | -3.13 ± 0.14 | -0.857 ± 0.12

Sequence | self-splicing fitness (ln) (30 °C) | self-splicing fitness (ln) (37 °C)
CUUCAGCAAUAUUACGCUAC | -2.4 ± 0.22 | -2.25 ± 0.37
CCAAAGCAAUAUUACGAUAG | -0.734 ± 0.086 | 0.171 ± 0.11
UAAUAGCAAUAUUACGUCUU | -3.1 ± 0.17 | -1.1 ± 0.11
GCUAAGCAAUAUUACGUACC | -0.573 ± 0.11 | 0.246 ± 0.17
CUAUAGCAAUAUUACGUUGC | -2.61 ± 0.32 | -2.37 ± 0.32
CAACAGCAAUAUUACGGGCU | -3.65 ± 0.13 | -2.66 ± 0.14
UGAAAGCAAUAUUACGGUGA | -1.27 ± 0.11 | -1.04 ± 0.14
AGACAGCAAUAUUACGAAAA |  | -1.44 ± 0.29
AAUCAGCAAUAUUACGCGCA | -0.8 ± 0.081 | -0.264 ± 0.12
GGCCAGCAAUAUUACGUAUG | -4.17 ± 0.31 | -2.85 ± 0.26
UUGGAGCAAUAUUACGUUCG | -2.23 ± 0.16 | -0.989 ± 0.17
UGCCAGCAAUAUUACGUUGA | -2.21 ± 0.074 | -1.26 ± 0.082
AAGGAGCAAUAUUACGACGC | -4.09 ± 0.43 | -1.13 ± 0.21
AGCAAGCAAUAUUACGAGUC | -3.5 ± 0.16 | -1.84 ± 0.14
GCAUAGCAAUAUUACGAGGU | -3.73 ± 0.4 | -2.07 ± 0.4
CCCUAGCAAUAUUACGAGAC | -3.85 ± 0.22 | -2.69 ± 0.34
GCAGAGCAAUAUUACGGUGU | -4.3 ± 0.32 | -2.31 ± 0.16
AGCCAGCAAUAUUACGUUGA | -3.31 ± 0.13 | -2.04 ± 0.16
CACCAGCAAUAUUACGCUGA | -3.31 ± 0.17 | -2.68 ± 0.15
AACCAGCAAUAUUACGAUAU | -0.891 ± 0.057 | -0.0726 ± 0.089
